Measurements reported in US20200113821A1.

Biological target: c-Kit (CD117; mast/stem cell growth factor receptor) on CD117+ bone marrow cells of β-globin/GFP transgenic mice (mouse) (UniProt P05532)
Experiment: cell-based or functional assay

UniProt P05532, sequence (P05532 25-979): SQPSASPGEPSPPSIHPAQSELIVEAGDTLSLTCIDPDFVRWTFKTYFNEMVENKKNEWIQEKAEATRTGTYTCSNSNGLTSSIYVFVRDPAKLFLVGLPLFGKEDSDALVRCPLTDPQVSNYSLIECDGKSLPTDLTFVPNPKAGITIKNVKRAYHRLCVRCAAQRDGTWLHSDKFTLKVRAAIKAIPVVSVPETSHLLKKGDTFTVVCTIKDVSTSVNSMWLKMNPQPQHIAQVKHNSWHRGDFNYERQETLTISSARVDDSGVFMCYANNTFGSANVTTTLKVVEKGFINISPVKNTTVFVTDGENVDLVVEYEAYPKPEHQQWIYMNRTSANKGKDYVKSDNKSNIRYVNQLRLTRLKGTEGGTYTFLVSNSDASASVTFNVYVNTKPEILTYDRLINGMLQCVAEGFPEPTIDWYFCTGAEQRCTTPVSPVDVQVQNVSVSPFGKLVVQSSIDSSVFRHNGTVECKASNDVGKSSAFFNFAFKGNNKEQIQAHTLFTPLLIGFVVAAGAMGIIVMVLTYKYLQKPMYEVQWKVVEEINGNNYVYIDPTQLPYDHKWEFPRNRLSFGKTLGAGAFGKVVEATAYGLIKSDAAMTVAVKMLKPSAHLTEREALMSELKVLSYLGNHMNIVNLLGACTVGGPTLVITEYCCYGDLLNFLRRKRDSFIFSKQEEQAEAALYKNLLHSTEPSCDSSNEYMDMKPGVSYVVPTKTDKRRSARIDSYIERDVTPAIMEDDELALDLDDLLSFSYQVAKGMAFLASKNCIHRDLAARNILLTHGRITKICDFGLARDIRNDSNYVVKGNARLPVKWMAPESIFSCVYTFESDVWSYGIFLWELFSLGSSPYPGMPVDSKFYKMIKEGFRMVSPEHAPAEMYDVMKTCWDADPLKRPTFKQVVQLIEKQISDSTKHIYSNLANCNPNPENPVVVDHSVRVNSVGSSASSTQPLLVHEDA

HDR activity (recombination between reporter gene constructs) in CD117+ cells: 2 fold
γtcPNA4/donor DNA-mediated gene editing (% GFP expressing CD117+ cells, flow cytometry): 15%
Substance: Recombinant murine SCF (stem cell factor), catalog #250-03, PeproTech (from UniProt P20826 26-189) (ligand)
